Measured values as given in publication PMC10350915, “Development of a New Class of CXCR4-Targeting Radioligands Based on the Endogenous Antagonist EPI-X4 for Oncological Applications” (Journal of Medicinal Chemistry, 2023).
Square brackets hold non-standard residues; d marks the D form. Peptide text beside a SMILES is read from it. * marks the point of attachment. DOTA = O=C(O)CN1CCN(CC(=O)O)CCN(CC(=O)*)CCN(CC(=O)O)CC1

Legend:
[1] = type: in vitro ADME, human; conditions: human, plasma
Method: Representative radiochromatograms are provided in Figure S25 for ^177Lu-1, ^177Lu-2, and ^177Lu-7. This included ^177Lu-9 despite its fatty acid chain.
Figure 3 Stability of the ^177Lu ligands in human plasma at 37 °C, expressed as % of intact radioligand over time, assessed by radio-HPLC. The % of plasma protein binding (PPB) after 60 min incubation is provided in parenthesis and it is expressed as the % of radioligand in the protein fraction (pellet) versus the total activity in the plasma. TEXT PRINTED IN THE PICTURE: ^177Lu-1: PPB: 35% | ^177Lu-2: PPB: 22% | ^177Lu-5: PPB: 42% | ^177Lu-6: PPB: 38% | ^177Lu-7: PPB: 39% | ^177Lu-9: PPB: 37%
To 1 mL of fresh human plasma, previously equilibrated at 37 °C, 500 pmol (8–10 MBq) of each ^177Lu-labeled ligand was added. The mixture was incubated at 37 °C for different time points (0, 15, 30, 60, and 120 min). At each time point, a 100 μL aliquot was removed and treated with 1.5 excess (v/v) of acetonitrile, to precipitate plasma proteins, followed by centrifugation for 5 min at 3500 rpm. The supernatant was collected and the process of protein precipitation was repeated. Afterward, 100 μL from the supernatant was taken, diluted with water at a ratio of 1:10 (v/v), and injected into radio-HPLC. The radioligand (in)stability was assessed by quantifying the percentage of intact radioligand over time.

Jurkat xenografts = type: in vivo, mouse; conditions: 1 h p.i., SPECT/CT or PET/CT
Method: The ability of the ^177Lu ligands to target CXCR4 in vivo was assessed by SPECT/CT imaging in Jurkat xenografts. […] 1 h after injection, the remaining amount of radioligand in the body (and vice versa, the washout) was quantified by measuring the total body activity (mouse) in a dose calibrator. The % of the radioligand remaining in the body after 1 h is reported in Figure 6A as % of the remaining activity in reference to the injected activity (100%).
Figure 6 SPECT/CT images as maximum intensity projections (MIPs) of Jurkat tumor-bearing mice at 1 h p.i. of ^177Lu-labeled ligands (200 pmol, ∼15 MBq). […] (B) Same SPECT/CT images of ^177Lu-1, ^177Lu-2, ^177Lu-5, and ^177Lu-6, adapted in a lower scale. T: tumor, L: liver, and K: kidneys. […] TEXT PRINTED IN THE PICTURE: (A) ^177Lu-1: Remaining Activity (% injected): 6 % | (A) ^177Lu-2: Remaining Activity (% injected): 7 % | (A) ^177Lu-5: Remaining Activity (% injected): 7 % | (A) ^177Lu-6: Remaining Activity (% injected): 8 % | (A) ^177Lu-7: Remaining Activity (% injected): 55 % | (A) ^177Lu-9: Remaining Activity (% injected): 94 %
The experimental protocol involving animals was approved by the Veterinary Office (Department of Health) of the Cantonal Basel-Stadt (Approval No. 30515) in accordance with the Swiss regulations for animal treatment. Female athymic nude-Foxn1^nu/Foxn1^+ mice (Envigo, The Netherlands), 4–6 weeks old, were injected subcutaneously with 10^7 Jurkat cells in a 200 μL (1:1) mixture of PBS and Matrigel (CorningMatrigelMembrane matrix, Fischer Scientific, Germany) on the right shoulder. The tumors were allowed to grow for 3–4 weeks before commencement of the experiments.
Nude mice bearing Jurkat xenografts were intravenously injected via the tail vein with ∼15 MBq (200 pmol) of the ^177Lu ligands and 8 MBq (200 pmol) of ^68Ga-7 were euthanized 1 h post injection (p.i.). The radioactivity in the syringe before and after injection was measured followed by measuring the amount of radioactivity remaining in the sacrificed mice. […]

Ghost-CXCR4 cells = assay: Cellular uptake and distribution in Ghost-CXCR4 cells; type: cell-based, human; conditions: 37 °C, 60 min
Method: Figure 4 In vitro assessment in Ghost-CXCR4 cells at 37 °C. […] Each experiment was performed in triplicate. Results are means ± SD [% of applied activity] from a minimum of two separate experiments. […] Cellular uptake was interrupted at 15, 30, and 60 min by removing the medium and washing twice with ice-cold PBS. The cell surface-bound radioligand was obtained by washing cells twice with ice-cold glycine buffer (pH 2.8) followed by a collection of the internalized fraction after treating the cells with 1 M sodium hydroxide (NaOH). The activity in each fraction was measured in a γ-counter. […] The results were expressed as a percentage of the applied radioactivity after subtracting the nonspecific uptake.

[2] = Shelf-life of 177Lu-labeled ligands at room temperature (radio-HPLC); type: physicochemical
Method: The shelf-life of each ^177Lu-labeled ligand was monitored at room temperature up to 24 h after radiolabeling.
The shelf-lives of ^177Lu-labeled ligands were assessed at room temperature (RT) in the buffer used for labeling, as described above. For the analysis, 5 μL was withdrawn at desired time points (0, 1, 2, 4, and 24 h) from the stock solution and mixed with 50 μL of the Ca-DTPA solution. 20 μL of this mixture was withdrawn and injected in RP-HPLC.

CC[C@@H](C)[C@@H](N)C(=O)N[C@@H](CC(C)C)C(=O)N[C@@H](CCCNC(=N)N)C(=O)N[C@@H](Cc1c[nH]c2ccccc12)C(=O)N[C@@H](CO)C(=O)N[C@@H](CCCNC(=N)N)C(=O)N[C@@H](CCCCN)C(=O)N[C@@H](CCCCNC(=O)CN1CCN(CC(=O)O)CCN(CC(=O)O)CCN(CC(=O)O)CC1)C(N)=O [^177Lu-7, metal not drawn] (H-[dI]LRWSRKK(DOTA)-NH2; N-terminus assumed)
metabolic stability in plasma (in words) [1]: high metabolic stability in plasma up to 4 h
visualization of CXCR4-expressing tumor xenograft by imaging (Jurkat xenografts): accumulated and visualized the CXCR4-expressing tumor xenograft
cellular uptake (% of the applied activity) (Ghost-CXCR4 cells): 7.90 ± 1.48%
radiochemical purity (%) ([2]; 0 h after radiolabeling): 98 ± 1%
radiochemical purity (%) ([2]; 1 h after radiolabeling): 95 ± 0%
radiochemical purity (%) ([2]; 2 h after radiolabeling): 94 ± 0%
radiochemical purity (%) ([2]; 4 h after radiolabeling): 88 ± 3%
